The supplement of paper PMC7125110
± gives the standard error. Fewer inactive variants are shown than the library holds.

B1: glmS ribozyme (parent)
chain: AUAAAAGCGCCAGAACUACAGAAAUGUAGUUGACGAGGAGGAGGUUUAUCGAAUUUUCGGCGGAUGCCUCCAAA

Columns and labels:
Details in all cases: with glucosamine-6-phosphate
glucosamine-6-phosphate [1] = variants of: B1; assay: self-cleavage kobs at 40 uM GlcN6P; higher = faster cleavage; RNA array
In short: (§1)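 E. coli RNA polymerase transcribed barcoded ribozyme variants in situ on sequenced MiSeq chips, which were tracked via a hybridised Cy3 probe at 37 °C. Tiles were imaged over ~14 h after glucosamine-6-phosphate (40 μM to 10 mM) in HEPES/KCl/Mg(OAc)2 buffer was flowed in. Normalised per-tile medians were fit to one- or two-exponential decays for kobs, and kcat and KM came from weighted Michaelis–Menten fits.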

glucosamine-6-phosphate [2] = variants of: B1; assay: self-cleavage kobs at 160 uM GlcN6P; higher = faster cleavage; RNA array
In short: as §1

glucosamine-6-phosphate [3] = variants of: B1; assay: self-cleavage kobs at 640 uM GlcN6P; higher = faster cleavage; RNA array
In short: as §1

glucosamine-6-phosphate [4] = variants of: B1; assay: self-cleavage kobs at 2500 uM GlcN6P; higher = faster cleavage; RNA array
In short: as §1

glucosamine-6-phosphate [5] = variants of: B1; assay: self-cleavage kobs at 10000 uM GlcN6P; higher = faster cleavage; RNA array
In short: as §1

Variant | self-cleavage kobs at 40 uM GlcN6P (glucosamine-6-phosphate [1]) [s⁻¹] | self-cleavage kobs at 160 uM GlcN6P (glucosamine-6-phosphate [2]) [s⁻¹] | self-cleavage kobs at 640 uM GlcN6P (glucosamine-6-phosphate [3]) [s⁻¹] | self-cleavage kobs at 2500 uM GlcN6P (glucosamine-6-phosphate [4]) [s⁻¹] | self-cleavage kobs at 10000 uM GlcN6P (glucosamine-6-phosphate [5]) [s⁻¹]
C11G A39U G60A | < 1e-05 | < 1e-05 | < 1e-05 | < 1e-05 | 
G7U A33C | < 1e-05 | < 1e-05 | < 1e-05 | < 1e-05 | < 1e-05
A39C C50G A52C | < 1e-05 |  |  |  | 
C34U A42C | < 1e-05 |  | < 1e-05 | < 1e-05 | < 1e-05
A33G A48G C71U | < 1e-05 | < 1e-05 |  | < 1e-05 | < 1e-05
U45A G60A | < 1e-05 | < 1e-05 |  |  | 
U55C C61U G63U |  | < 1e-05 | < 1e-05 | < 1e-05 | 
G9U G51C | < 1e-05 | < 1e-05 |  |  | < 1e-05
G35C G60U G62C |  | < 1e-05 | < 1e-05 |  | 
G35C C50A G51U A52C |  | < 1e-05 | < 1e-05 |  | 
U31C U56G G60C |  | < 1e-05 | < 1e-05 |  | < 1e-05
G41A G62U C67G | < 1e-05 |  |  |  | 
A36G G63U | < 1e-05 | < 1e-05 | < 1e-05 | < 1e-05 | < 1e-05
U31C A36G A39G U47C | < 1e-05 |  |  |  | < 1e-05
U55A G62A | < 1e-05 |  |  | < 1e-05 | 
G35C C71U | < 1e-05 |  | < 1e-05 | < 1e-05 | < 1e-05
G62C A64G | < 1e-05 |  | < 1e-05 |  | < 1e-05
G44C G51U | < 1e-05 |  |  | < 1e-05 | < 1e-05
G9C A53C | < 1e-05 | < 1e-05 | < 1e-05 |  | < 1e-05
U54G A64C C67A C70U | 0.000151 ± 5.2e-05 | 0.000348 ± 0.00013 | 0.000556 ± 0.00017 | 0.000241 ± 0.0001 | 4.58e-05 ± 1.8e-05
G9C C50G |  | 0.00045 ± 0.00018 |  |  | 
C50U C58U | < 1e-05 |  | < 1e-05 |  | < 1e-05
C11G G32A U65G |  | < 1e-05 | < 1e-05 |  | < 1e-05
G41C U45G | < 1e-05 |  |  |  | 9.46e-05 ± 1.7e-05
G7C C71G | < 1e-05 |  |  | < 1e-05 | < 1e-05
G38U G43U U65C |  | < 1e-05 |  |  | 

Variant | self-cleavage kobs at 40 uM GlcN6P (glucosamine-6-phosphate [1]) [s⁻¹] | self-cleavage kobs at 160 uM GlcN6P (glucosamine-6-phosphate [2]) [s⁻¹] | self-cleavage kobs at 640 uM GlcN6P (glucosamine-6-phosphate [3]) [s⁻¹] | self-cleavage kobs at 2500 uM GlcN6P (glucosamine-6-phosphate [4]) [s⁻¹] | self-cleavage kobs at 10000 uM GlcN6P (glucosamine-6-phosphate [5]) [s⁻¹]
A36U A52G C70A | 5.42e-05 ± 1.4e-05 |  | 0.000171 ± 6.6e-05 |  | 
U30G G32A G35C A42C | < 1e-05 |  |  |  | 
C10A G38A G41U G44A G59U |  | < 1e-05 | < 1e-05 | < 1e-05 | 
A6U C50G | 4.82e-05 ± 1.8e-05 | 6.77e-05 ± 2.7e-05 |  | 0.000434 ± 0.00021 | 2.57e-05 ± 1.3e-05
A14G G41A C67U | < 1e-05 |  |  |  | 
U31C G40U G44U U46G | < 1e-05 |  |  |  | 
A33U G59C | < 1e-05 |  | < 1e-05 |  | < 1e-05
C10U A33C U47G G51U C58G A64U C70A | 7.66e-05 ± 2.4e-05 |  |  |  | 0.000101 ± 2.1e-05
G35U C50G | 3.53e-05 ± 1.5e-05 | 9.05e-05 ± 2.7e-05 |  | 0.000141 ± 3.9e-05 | 
A12U A42G U46G G63U | < 1e-05 |  |  |  | < 1e-05
G38C G44U C50U |  | < 1e-05 | < 1e-05 |  | 
A33C C34G G40U A48U C61A |  | < 1e-05 | < 1e-05 | < 1e-05 | 
G40U C61A G63C | < 1e-05 | < 1e-05 |  | < 1e-05 | 
C10A A42U |  | < 1e-05 | < 1e-05 | < 1e-05 | 
A33U A42C U47G U54A | < 1e-05 |  | < 1e-05 | < 1e-05 | < 1e-05
U31G U54G | 0.000298 ± 5.4e-05 | 0.000493 ± 8.5e-05 | 0.00263 ± 0.00063 | 0.00445 ± 0.00094 | 0.0119 ± 0.0031
G32C U45C C58G G59U | < 1e-05 |  |  |  | 
A33C G44U |  | < 1e-05 | < 1e-05 | < 1e-05 | < 1e-05
G13U U47G A52C |  | < 1e-05 |  | < 1e-05 | 
A12G A14C A48U |  | < 1e-05 | < 1e-05 | < 1e-05 | 
G38C A42G | < 1e-05 | < 1e-05 | < 1e-05 | < 1e-05 | < 1e-05
U47G A48U A52C | < 1e-05 |  |  |  | < 1e-05
A12U A36U G44A | < 1e-05 |  |  |  | 
C58G C61U | < 1e-05 |  |  |  | 
U31C G51A | < 1e-05 |  | < 1e-05 | < 1e-05 | < 1e-05
C8U G32A |  | < 1e-05 |  | < 1e-05 | < 1e-05

Variant | self-cleavage kobs at 40 uM GlcN6P (glucosamine-6-phosphate [1]) [s⁻¹] | self-cleavage kobs at 160 uM GlcN6P (glucosamine-6-phosphate [2]) [s⁻¹] | self-cleavage kobs at 640 uM GlcN6P (glucosamine-6-phosphate [3]) [s⁻¹] | self-cleavage kobs at 2500 uM GlcN6P (glucosamine-6-phosphate [4]) [s⁻¹] | self-cleavage kobs at 10000 uM GlcN6P (glucosamine-6-phosphate [5]) [s⁻¹]
C10A A14C A42C G63A | < 1e-05 | < 1e-05 |  |  | < 1e-05
G29A A36U U55G |  | < 1e-05 | < 1e-05 |  | 
G44C U46G | < 1e-05 | < 1e-05 | < 1e-05 | < 1e-05 | 
A12U U47C U65C |  | < 1e-05 |  |  | 
G38U G43A C58G U65C |  | < 1e-05 |  |  | 
C11A A48C U55C C61A | < 1e-05 |  |  |  | 
U31A U49A C61U C70G | < 1e-05 |  |  |  | 
A15C A48C |  | < 1e-05 |  |  | 4.99e-05 ± 1.2e-05
C11G G13U | < 1e-05 | < 1e-05 | < 1e-05 | < 1e-05 | < 1e-05
G35U G41A A48G C58G |  | < 1e-05 |  |  | 
C16U C50U | < 1e-05 |  |  | 5.3e-05 ± 1.3e-05 | 0.000106 ± 2e-05
G43C U55A A64U |  | < 1e-05 |  |  | 
C16U C58G C68G |  | 0.000169 ± 4.4e-05 | 0.000132 ± 3.4e-05 | 7.79e-05 ± 1.5e-05 | 
C10U A12G G35C |  | < 1e-05 |  |  | 
C8G G13U G51C A64G | < 1e-05 |  |  |  | 
G7C U45G G59A |  | < 1e-05 | < 1e-05 | < 1e-05 | < 1e-05
U49C G62U |  | < 1e-05 | < 1e-05 | < 1e-05 | < 1e-05
A36C G41C |  | < 1e-05 | < 1e-05 | < 1e-05 | < 1e-05
G41C G66A U69C | < 1e-05 | < 1e-05 |  |  | 
C8A A15G U54A | < 1e-05 |  |  |  | < 1e-05
A15C A52C C70U C71G | < 1e-05 |  |  |  | 
G9A A14C G41U U55C | < 1e-05 |  |  |  | 
C34U U55G C71U | < 1e-05 |  |  |  | 
U45A C67A | 0.000364 ± 5.5e-05 |  |  | 0.00568 ± 0.0022 | 0.00719 ± 0.0014
A6C U57C |  | < 1e-05 | < 1e-05 | < 1e-05 | < 1e-05
C8G C71G |  | < 1e-05 | < 1e-05 | < 1e-05 | < 1e-05

Variant | self-cleavage kobs at 40 uM GlcN6P (glucosamine-6-phosphate [1]) [s⁻¹] | self-cleavage kobs at 160 uM GlcN6P (glucosamine-6-phosphate [2]) [s⁻¹] | self-cleavage kobs at 640 uM GlcN6P (glucosamine-6-phosphate [3]) [s⁻¹] | self-cleavage kobs at 2500 uM GlcN6P (glucosamine-6-phosphate [4]) [s⁻¹] | self-cleavage kobs at 10000 uM GlcN6P (glucosamine-6-phosphate [5]) [s⁻¹]
A6G U69C |  | < 1e-05 |  |  | 2.56e-05 ± 1e-05
A12U A14U U45A |  | 0.000413 ± 0.0001 | 0.00157 ± 0.00031 | 0.00242 ± 0.00082 | 
C8A C10U C34G | < 1e-05 |  |  |  | 
C10U A39U A64U C70G |  | < 1e-05 | < 1e-05 |  | 
U56G G62U C68G | < 1e-05 |  |  |  | < 1e-05
U30A G51U U54A | < 1e-05 |  |  |  | < 1e-05
A15U A36G U69G | 3.94e-05 ± 1.7e-05 |  |  |  | 
G32C G35U | < 1e-05 | < 1e-05 | < 1e-05 | < 1e-05 | < 1e-05
G38C U57C | < 1e-05 | < 1e-05 |  |  | < 1e-05
G35U C61U |  | < 1e-05 | < 1e-05 | < 1e-05 | 
A12U U30A C70U | 0.000748 ± 0.00013 |  |  |  | 0.0461 ± 0.017
G35C U57G G59C |  | < 1e-05 |  |  | 
G9A C10A G32A | < 1e-05 |  |  |  | 
U30A U56C G60U A64C |  | < 1e-05 | < 1e-05 |  | 
G35A A48C | < 1e-05 | < 1e-05 | < 1e-05 | < 1e-05 | < 1e-05
G13C G66C | < 1e-05 |  | < 1e-05 |  | 
C8G G59A C71G |  | < 1e-05 |  |  | 
U65A C70U | 0.000142 ± 1.8e-05 | 0.00024 ± 4.6e-05 | 0.000871 ± 0.00012 | 0.00273 ± 0.0009 | 0.00403 ± 0.0008
U47G A52G U69C | 6.7e-05 ± 2.4e-05 |  |  |  | 9.36e-05 ± 1.5e-05
C11A G51A | < 1e-05 |  | < 1e-05 |  | < 1e-05
U49G C50A | < 1e-05 | < 1e-05 |  |  | 
G41A U49G C67U C71U | < 1e-05 |  |  |  | < 1e-05
G9U A52C |  | < 1e-05 |  | < 1e-05 | 
